Source: PMC9351520
pKd: −log10 of the molar value.

Assays:
[1] = target: fluorescently Ct-labeled six-residue peptide bearing Nt-Asp; experiment: fluorescence polarisation
[2] = target: fluorescently Ct-labeled six-residue peptide bearing Nt-Glu; experiment: fluorescence polarisation

**Q.** “klAte1, the Ate1 arginyl-tRNA-protein transferase (R-transferase) of Kluyveromyces lactis (enzyme)” was tested. Which pKd [1] did it give?
**A.** < 4.00

**Q.** What about the pKd [2] of the same substance?
**A.** < 4.00
